From PMC7343536 (Cell, 2017)
Where two headings read alike, the source gives them in different places. No end group written: not given here.

Legend:
[1] = biological target: T1, Ssb2 (purified recombinant) (S. cerevisiae, UniProt P40150 1-613); assay: stopped-flow fluorescence, peptide release
[2] = biological target: T1, Ssb2 (purified recombinant); assay: stopped-flow fluorescence, peptide release; remark: listed apart in the source

T1 sequence (P40150 whole entry): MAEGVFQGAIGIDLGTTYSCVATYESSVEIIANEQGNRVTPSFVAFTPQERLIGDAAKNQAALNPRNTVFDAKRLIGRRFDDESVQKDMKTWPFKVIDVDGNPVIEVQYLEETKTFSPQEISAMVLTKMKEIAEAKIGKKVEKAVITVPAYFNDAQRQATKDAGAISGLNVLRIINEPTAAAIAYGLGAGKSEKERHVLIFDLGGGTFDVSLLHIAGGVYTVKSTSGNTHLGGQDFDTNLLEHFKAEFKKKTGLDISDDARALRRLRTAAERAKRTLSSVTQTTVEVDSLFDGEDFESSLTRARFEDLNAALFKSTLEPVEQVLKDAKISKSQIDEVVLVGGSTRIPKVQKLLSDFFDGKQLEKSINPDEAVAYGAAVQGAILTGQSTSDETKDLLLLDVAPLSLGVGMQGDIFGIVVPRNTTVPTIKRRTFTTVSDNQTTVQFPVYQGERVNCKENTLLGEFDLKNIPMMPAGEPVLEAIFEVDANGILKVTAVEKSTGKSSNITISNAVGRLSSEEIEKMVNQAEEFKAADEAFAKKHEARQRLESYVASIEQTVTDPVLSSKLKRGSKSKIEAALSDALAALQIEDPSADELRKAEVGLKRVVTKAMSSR

half-life of the complex [1]: 7.7 ± 6.7 min | half-life of the complex [2]: 3.9 ± 0.2 h
Binder: QRKLFFNLRKTKQC (not fully specified (residue 14); also: labeled with IAANS, site not given here) [IAANS labeled peptide substrate σ32-Q132-Q144-C]
